Measured values published in US20180057591A1 (Eli Lilly, published 2018).
Where a chain is given by its changes, count along the chain named. Each block holds one binder with its values, some of them ahead of it.

Key:
[1] = biological target: T1, human Tim-3 on cells (Tim-3 DO11.10 cells, a human Tim-3 expressing DO11.10 cell line) (human, UniProt Q8TDQ0 22-301); assay: cell-based or functional assay
[2] = biological target: T2, human Tim-3-Fc (R&D Systems) (human, UniProt Q8TDQ0 22-130, biotinylated in the phosphatidylserine assay; ruthenylated (sulfo-tag NHS-ester) in the galectin-9 assay); assay: ELISA, plate coated with human Tim-3-Fc
T2 construct: Bought from R&D Systems; also called hTIM-3-Fc; hTIM-3-Fc Biotin; not shown: Fc part of the bought fusion protein

[3] = biological target: T1, human Tim-3 on cells (Tim-3 DO11.10 …); assay: flow cytometry, A488-labelled antibody on Tim-3 DO11.10 cells
[4] = biological target: T2, human Tim-3-Fc (R&D Systems); assay: MSD blocking assay, ruthenylated hTim-3-Fc binding to plate-bound galectin-9-biotin
[5] = biological target: T3, human Tim-3-IgV-Fc single arm antigen (SAG) (human, UniProt Q8TDQ0 22-130); assay: SPR, Biacore T100, antibody captured by Human Fab Binder, Tim-3 SAG as analyte, 1:1 Langmuir with mass transport
T3 construct: Single arm format: the second (Fc only) chain is not described; also called Tim-3 SAG; not shown: Fc part

[6] = biological target: T2, human Tim-3-Fc (R&D Systems); assay: flow cytometry, blocking of biotinylated hTIM-3-Fc binding to phosphatidylserine on camptothecin-treated DO11.10 cells; blocking of hTIM-3-Fc Biotin binding to phosphatidylserine on camptothecin-treated DO11.10 cells
hTim-3-IgV-FLAG = biological target: T4, hTim-3-IgV-FLAG (human, UniProt Q8TDQ0 22-130, density indicating glycosylation at Asn99); assay: SPR, Biacore T200, Fab captured, hTim-3-IgV-FLAG as analyte, HBS-EP, 25 C, 1:1 binding
T4 construct: Purified from 293HEK supernatant with anti-FLAG resin; also called hTim-3-FLAG; not shown: FLAG tag

B1: Antibody A (antibody, human IgG1, kappa, V domains shown)
VH: EVQLLESGGGLVQPGGSLRLSCAASGFTFSSYYMSWVRQAPGKGLEWVSAISGSGGSTYYADSVKGRFTISRDNSKNTLYLQMNSLRAEDTAVYYCARYARTAFDLWGQGTLVTVSS
VL: DIVMTQSPSSLSASVGDGVTITCQASQDIYNYLNWYQQKPGKAPKLLIYAASSLQSGVPSRFSGSGSGTDFTLTISSLQPEDFATYYCQQANSFPPTFGQGTKLEIKR
notes: also called anti-human Tim-3; Antiboby A
- EC50 (nM), IL-2 production of hTim-3 DO11.10 cells with A20 cells and OVA peptide [1]: 3.71 nM
- EC50 [2]: 0.0207 nM
- EC50 [3]: 0.09 nM
- IC50 [4]: 5.6 nM
- Kd [5]: 0.398 nM
- koff [5]: 0.000927 s⁻¹
- kon [5]: 2.33e+06 M⁻¹ s⁻¹
- IC50 [6]: 0.32 nM

B2: Antibody A-Fab (Fab, V domains shown)
VH: B1 VH
VL: B1 VL
notes: Made by clipping Antibody A with immobilized papain; also called Fab for Antibody A
- Kd (hTim-3-IgV-FLAG): 7.92 nM
- koff (hTim-3-IgV-FLAG): 0.00286 s⁻¹
- kon (hTim-3-IgV-FLAG): 362000 M⁻¹ s⁻¹

Continued by falling Kd [5], values first:

- EC50 (nM), IL-2 production of hTim-3 DO11.10 cells with A20 cells and OVA peptide [1]: 3.35 nM
- Kd [5]: 0.173 nM
- koff [5]: 0.000138 s⁻¹
- kon [5]: 797000 M⁻¹ s⁻¹
B4: Antibody C (antibody, human IgG1, kappa, V domains shown)
VH: B1 VH with S54N, G56K, A100Y, R101N, A103G
VL: B1 VL with A50Y, L54I, Q55V

- EC50 (nM), IL-2 production of hTim-3 DO11.10 cells with A20 cells and OVA peptide [1]: 6.08 nM
- Kd [5]: 0.158 nM
- koff [5]: 0.000106 s⁻¹
- kon [5]: 675000 M⁻¹ s⁻¹
B3: Antibody B (antibody, human IgG1, kappa, V domains shown)
VH: B1 VH with T28S, Y32F, M34F, S54N, G56R, A100Y, R101N, A103G
VL: B1 VL with Q27E, D28A, N31G, Q55P, S56I, N92Y, S93G
